Experimental data: publication PMC6659731

Target: T1, BUD13-2xFLAG (UniProt Q9BRD0 1-619)
T1 sequence: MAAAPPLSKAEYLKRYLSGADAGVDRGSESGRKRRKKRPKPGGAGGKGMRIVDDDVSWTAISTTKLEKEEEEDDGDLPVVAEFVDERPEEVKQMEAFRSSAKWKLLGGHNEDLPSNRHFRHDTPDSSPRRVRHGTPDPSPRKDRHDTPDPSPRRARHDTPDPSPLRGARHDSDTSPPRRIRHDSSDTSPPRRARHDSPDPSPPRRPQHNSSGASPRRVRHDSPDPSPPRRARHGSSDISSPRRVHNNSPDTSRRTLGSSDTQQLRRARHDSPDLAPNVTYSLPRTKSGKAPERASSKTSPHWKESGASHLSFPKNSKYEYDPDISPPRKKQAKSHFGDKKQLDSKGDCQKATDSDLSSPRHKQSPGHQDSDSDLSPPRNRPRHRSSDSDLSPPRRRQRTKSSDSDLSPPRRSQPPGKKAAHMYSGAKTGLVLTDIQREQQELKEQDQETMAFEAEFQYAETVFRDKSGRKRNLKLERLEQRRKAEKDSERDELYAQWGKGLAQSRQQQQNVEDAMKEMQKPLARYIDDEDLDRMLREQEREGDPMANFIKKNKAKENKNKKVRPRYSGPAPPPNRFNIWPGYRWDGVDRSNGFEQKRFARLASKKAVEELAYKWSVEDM
Experiment: EMSA

Binder: UAAAGUGCUUAUAGUGCAGGUAGUGU (ssRNA) [EMSA miR-20a locus RNA oligo]
- binding result: no binding
